# Reference: patent publication US6686449B2, “Mutant presenilin 1 polypeptides” (Pharmacia & Upjohn Company, priority 2000, dated 2004)
# Tests used:
# [1] = tested on: APP processing in H125.3-16 (APP695sw-KK) and H143.3-23 (APP695sw) HEK cells; experiment: Transient transfection of constructs, Elisa of Aβ in conditioned media, HEK APP695sw cell lines; format: cell-based, human; conditions: 48 hours after transfection
# Description: (§1) The construction of the cell lines used in this section has been described in U.S. Pat. No. 6,440,698. Transient transfections were carried out in 4 different cell lines: H125.3-16, N2A-APP, H143.3-23, and H167-11. The H125.3-16 cell line expresses human APP695 swedish mutant cDNA with a dilyine motif in HEK-293 cells, and the H 143.3-23 cell line expresses human APP695 swedish mutant cDNA in HEK-293 cells. The H167-1 1 cell line was developed using the same methods as the H125.3-16 and H143.3-23 cell lines, except the 167 construct DNA (pTRES-EGFP harboring the human APP695 V642F mutant cDNA containing a dilyine motif) was used. […]
# (§2) Twenty-four hours prior to transfection, cells were plated at 6×10^5 cells per well of a six-well dish. […] Conditioned media was collected from the cells 48 hours after transfection and then analyzed by Elisa assay for levels of Aβ1-40 and Aβ1-42. […]
# [2] = tested on: APP processing in H167-11 HEK cells (APP695V642F-KK); experiment: Transient transfection of constructs, Elisa of Aβ in conditioned media, H167-11 cell line; format: cell-based, human; conditions: 48 hours after transfection
# Description: as §1, §2
molecule,measurement,setting,value
"BACE: beta-secretase (Asp2) plasmid transfected into the cell lines (protein, UniProt P56817 46-501, looked up) Beta-secretase 1: ETDEEPEEPGRRGSFVEMVDNLRGKSGQGYYVEMTVGSPPQTLNILVDTGSSNFAVGAAPHPFLHRYYQRQLSSTYRDLRKGVYVPYTQGKWEGELGTDLVSIPHGPNVTVRANIAAITESDKFFINGSNWEGILGLAYAEIARPDDSLEPFFDSLVKQTHVPNLFSLQLCGAGFPLNQSEVLASVGGSMIIGGIDHSLYTGSLWYTPIRREWYYEVIIVRVEINGQDLKMDCKEYNYDKSIVDSGTTNLRLPKKVFEAAVKSIKAASSTEKFPDGFWLGEQLVCWQAGTTPWNIFPVISLYLMGEVTNQSFRITILPQQYLRPVEDVATSQDDCYKFAISQSSTGTVMGAVIMEGFYVVFDRARKRIGFAVSACHVHDEFRTAAVEGPFVTLDMEDCGYNIPQTDESTLMTIAYVMAAICALFMLPLCLMVCQWRCLRCLRQQHDDFADDISLLK",change of Aβ1-40 in conditioned media versus mock transfected cells,[1],robust increase
same,change of Aβ1-42 in conditioned media versus mock transfected cells,[1],robust increase
same,change of Aβ1-40 or Aβ1-42 versus mock transfected cells,[2],increase
